# Target: delta (India) variant S glycoprotein of SARS-CoV-2 (SARS-CoV-2) (UniProt P0DTC2)
# Assay: cell-based or functional assay
row,Substance,"Preliminary Estimate of IC50 (nM), RVP neutralization [nM]"
1,hsACE2 H374N H378N (variant polypeptide encoded by SEQ ID NO: 6) (from UniProt Q9BYF1 18-740) (receptor),8.29
2,hsACE2 N90D R273A (variant polypeptide encoded by SEQ ID NO: 4) (from UniProt Q9BYF1 18-740) (receptor),2.74
3,hsACE2 N90D T92A (variant polypeptide encoded by SEQ ID NO: 5) (from UniProt Q9BYF1 18-740) (receptor),2.33

# Reference: patent US20250268994A1
